Test results: the nanobody polyreactivity screen of Harvey et al. (2022)

Test: yeast display, Sf9 membrane polyspecificity reagent, FACS + sequencing; frameworks hold sequencing errors
Procedure, shortened: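 Synthetic nanobody libraries on Saccharomyces cerevisiae BJ5465 were galactose-induced for 36–48 hours, stained 1 hour at 4 °C with 10% biotinylated, detergent-solubilized Sf9 membrane reagent and enriched on streptavidin microbeads. FACS then separated cells into low and high (top ~1%) gates by anti-HA (expression) and streptavidin (reagent binding) fluorescence. Genes were colony-PCR amplified, MiSeq 2 × 250 sequenced and CDR-length filtered. A clone's polyreactivity label is that of its gate of origin.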

Row | Sequence | polyreactivity (PSR sort gate)
1 | QDQLVDSCGGLVQARGSLRLSCAASGSIFGDYAMGWYRQAPGKEWELVAAISDTDSTNDADSVKGRFTISRDNAKNTVYLQMNSLKREDTAVYSCNGDTWGYLLGYYYYKFAYCGQGTQVTVSS | low polyreactivity
2 | QDQLVDSGGGLLQAGGSLRLSCAASGRIFVWNTMGWYRQAPGKERELVAAITSGGSTTFADSVKGRFTISRDNAKYTVYLQMNSLKPEDTAVYYCNTELDLYHPGDDYWGQGTQVTVSS | high polyreactivity
3 | QDQLVDSGGGLVQAGGSLRLSCAASASTFDPNLMPSYRQAPGKEREVVAAISSRSGSTSYADSVKGRFTISRDNAKNTDYLQMNSLKPEDTAVYYCAARVYGLPLRMYSWGQGTQVTGSS | high polyreactivity
4 | QDQLVDSGGGLVQAGGSLRLSCAASGNIFTFNAMGWYRQAPGKERELVAAISRGGRTNYADSVKGRFTISRDNAKNTVYLQMNSLKPEDTAVYYCAAEFPQRASGGRYKTEYDYWRQGTQVTVSS | low polyreactivity
5 | QDQLVDSGGGLVQAGGSLRLSCAASGYTFWDYAMGWYRQAPGKEREFVAGISFSDGGTYYADSVKGRFTISRDNAKNTVYLQMNSLKPEDTAVYYCAATYPYSWVYSGYYYWGQGTQVTVSS | low polyreactivity
6 | QDQLVDSGGGLVQAGGSLRLSCAPSGSTIYPNAKGWTRQAPGKERELVAGISSGGGTYYADSVKGRFTISRDNAKNTVYLQMNSLKPEDTAVYYCNAYFLSSCLDYLGQGTQVTVSS | low polyreactivity
7 | QDQLVEAGGGVVQAGGSLRLSCAASVIIIDYYAMAWYRQAPAKERELDAAITSGGSTSYADSVKGRFTISRDNAKNTVYLQMNSLKPEDTAVYYCNNEPSGYQSAYWGQGTQVTVSS | low polyreactivity
8 | QDQLVESAGGLVQAGGSLRLICAATGSNFNRYAMGWYRQAAGKEREFVAAITRRGGNTYYADSVKGRFTISRDHPKNTVYLQMNSLKPVDTAVYYCAAPFYFPAGLLYYENNYWGHGTQVTVSS | high polyreactivity
9 | QDQLVESAGGLVQAGGSLRLSCAASGNTFSTNPLGSYRQAAGKERELVATISRNGGSTSYAVSVKGRFTISRDNAKNSDYLKMYSLKAEDTAVYYCAARSVRPGPFSDDYWGQGTQVTVSS | low polyreactivity
10 | QDQLVESAGGLVQAGGSLRLSCAASGSNFYHYAMGWYRQAHGKERELVAAISQSGGGTYYADSVKGRFTISRDNAKNTVYLQMNSLKPEDTAVYYFAAKGRHNYYYWGQGTLVTVSS | high polyreactivity
11 | QDQLVESCGGLVQAGGSLRISCAASGRIFLPTAMGGYRQAPGKERELVAAINSSDASTDFADSVQGRFTISRDHAKTTVYLQRNSLKPEDTAVYYCAAENDTSDAVRYDYWGQGTQVTVSS | low polyreactivity
12 | QDQLVESCGGLVQAGGSLRLICAAYGRIISINAMGWYRQAPVKERELVATISWRGGSTYYADSVKGRFTISRDNAKNTVYLQMNSLKPEDTAVYYCKKVFSERWARYFRYDYWVQGTQVTVSS | high polyreactivity
13 | QDQLVESGAGLVQAGGSLRLSCAASGRTFAYNAMGWYRQAPGKERELVASITSGGSTNYADSVKGRFTISRDNAKNTVYLQMNCLKPEDTAVYYCNKDGKYHRVLYDYWGQGTQVTVSS | low polyreactivity
14 | QDQLVESGGCLVQAGGSHRLSSAASGIIIWYNTMGRYRQAPGKEREFFARISRRVGSTYYADSVKGRFTISRDNAKNTVYLQMNSLKPEDTAVYYCNRTRYRSFHYDYWGQGTKVTVSS | high polyreactivity
15 | QDQLVESGGCLVQAGGSLRLSCAASGNIFDTYVMGWYRQAPGKEMELVAAITSDGGTYYADSVKARFTISRDNAKNTVYLQMNSLKPEDTAVYYCAADTYYYPIHDYWGQGTQVTVSS | low polyreactivity
16 | QDQLVESGGCLVQAGGSLRLSCAASGSISDSKAMGWYRQAPGKERELVAAISNGGSTNYADSVKGRFTISRDNAKNTVYLQMNSLKPEDTAVYYCARDYDIQNHEYDYWGQGTQVTVSS | low polyreactivity
17 | QDQLVESGGGIVQEGGSLRLSCAASGLIFRVYAMGWYRQAPGKEWELVATITRGGRTYYADSVKGRFTISRDNAKNTVYLQMNSLKPEDTAVSYCAVLSVRRSYNYWGQGTQVTVSS | high polyreactivity
18 | QDQLVESGGGLDQAGGSLRLSCAASGRIFQKYAMACYRQAPGKERELVAAISSGDSTYADSVKGRFTISRDNAKNTVYLQMNSLKPEDTAVYYCAADSHYQEDFRIQYDYWGQGTQVTVSS | low polyreactivity
19 | QDQLVESGGGLFQAGGSLSLSCAASGNTFYWNAMGWYRQATGKEREFVAAISTTGVSTYYADSVKGRFTISRDNSKNTVYLQMNSLKPEDTAVYYCASEIIGYHTIYDYWGQGTQVTVSS | low polyreactivity
20 | QDQLVESGGGLGQAGGSLRLSCAASGSNFRPNAMGWYRQAPGKEMELVASITRNGGSTYYADSVKGRFTISRDNAKNTVYLQMNSLKPEDTAVYYCNAGYYYWGQGTQVTLSS | high polyreactivity
21 | QDQLVESGGGLLQAGGSLRLICAASGYTLQGYAMGSSRQATGKERELVAAISSNGGSTYYADSVKGRFTISRDNAKNTVYLEMNSLKPEDTAVYYCNAQYIVYYRYARITKYDYWGQGTQVTVSS | high polyreactivity
22 | QDQLVESGGGLVEAGGSLRLSCAASGRTFWLNAMGWYRQAPGKERELVATISSSSGSTTYADSVKGRFTSSRDNAKNTVYIQMNSLKPEDTAVYYCNVDDPFYSGVVEFDYWGQGTQVTVSS | low polyreactivity

Row | Sequence | polyreactivity (PSR sort gate)
23 | QDQLVESGGGLVHAGGSLRLSCAASVSIFVRNAMGWYRQAPGKERELVAADSVKGRFTISRDNAKNTVYLQMNSLKPEDTAVYYCNKDYIIRRGPIVYYGFDYWGQGTQVTVSS | low polyreactivity
24 | QDQLVESGGGLVHAGGSLRLSSAASGLTFSYYAMGWYRQAPGKERELVAAIDYSGGTTYADSVKGRFTISRDNAKNTVYLQMNSLKPEDTAVYYCADAPDGWFASGDEYWGHGTQVTVSS | high polyreactivity
25 | QDQLVESGGGLVKAGGSLRLSCAASGGTFYYYAMGWYRQAPGKERELVAANTRSGGNAYYADSVKARFTISRDNAKNTVYLLLHSLKPEDTAVYYCAAPFVNFVGSLVYAGYDSCGQGTQVTVSS | low polyreactivity
26 | QDQLVESGGGLVQAGCSLRFTCAACGRIFHYYAMGWYRQAPGKERELVAAITSSRGSTYYADSVKGRFTISRDNAKKTGYVQMNSLQPEDTAVYYCAAGLIVGRFVRYDYWGQGTHVTVSS | high polyreactivity
27 | QDQLVESGGGLVQAGGCLRLSCAASGSIFYIYGRGWYRQEPGKERELVAAISRSGGRTYYADSVKGRFTISRDTANNTVYLQMNSLKPEDTAVYYCAARDHYSTGGMNYWGQGTQVTVSS | high polyreactivity
28 | QDQLVESGGGLVQAGGRLRLSSAASVSTFLPNTLGWYSQAHGKERELVADISWSGGSTYYADSVKGRLTISRDNAKNTVYLQMNRLKPEDTADSYCAADIASGYYWYDYWGQGTQVTVTS | low polyreactivity
29 | QDQLVESGGGLVQAGGSLGLSCAASGIIFYGYAMRWYRPAPGKERELVAAISRSGGSTYYADSVKGRFTISRDNAMNTVYLQMNSLKPEDTAVYYCAASGVTYDYWGQGTQVTVSS | high polyreactivity
30 | QDQLVESGGGLVQAGGSLPLSCAASGRTISAYAMGWYRQAPGKERELVAAISRRGGSTYYADSVKGRFSISRDNAKNTVYLQLNSLKPEETAVYYCAADVYKQYGYYYWGEGTQVTVSS | high polyreactivity
31 | QDQLVESGGGLVQAGGSLRISCAASGITFRYYAMGWYRQAPGKERELVAAITSGGRTYYADSVKGRFTISRDNAKNRVYLQMISLKPEDTAVYYGNAVTFSFYLYAWGQGTQVTVSS | high polyreactivity
32 | QDQLVESGGGLVQAGGSLRLICAASGRTFWAYAMGWYRQAPGKERELVAAISVSGGRTYYADSVKGRFTISRDNAKNTVYLQMNSLKPEDTAVYYCNKRYLKSYEYYWGQGTHVTVSS | high polyreactivity
33 | QDQLVESGGGLVQAGGSLRLICAASGSNLNNYAMGWSRQAPGKERELVAAISSSGGTNYADSVKGRFTISRDNAKNTVYLQMNSLKPEDTAVYYCNADVLEGGYDYWGQGPQVTVSS | low polyreactivity
34 | QDQLVESGGGLVQAGGSLRLSCAASAFTLSPNSMGWDRQAPGKEREFVAAISQRGGSTYYADSVKGRFTISRDNAKNTVYLQMNSLKPEDSAVYYCARDTKYKYDYWGQGTQVTVSS | low polyreactivity
35 | QDQLVESGGGLVQAGGSLRLSCAASARIFERYAKGWYRPPPGKEMELVAAISYRGGRTYYADSVKGRFTISRVNAKNTVYLQMNSLKPEDTAVYYCAAYTYFRDWAEYDYWGQGTQVTVSS | high polyreactivity
36 | QDQLVESGGGLVQAGGSLRLSCAASGFIFFYYAMGRYRQAPGKERELVAAISSSGGSTYYADSVKGRFTISRDNAKNTVYLQMNSLKPEDTAVYYCAAQYNVPRDKYYYWGQGTQVTVSS | high polyreactivity
37 | QDQLVESGGGLVQAGGSLRLSCAASGFIFGGYAMGWYRQAPGKERELVAAISSSGGSTYYADSVKGRFTISRDNAKNTVYLQMNSLKPEDTAVYYCAKVGWSRRYYYWGQGTQVTVSS | high polyreactivity
38 | QDQLVESGGGLVQAGGSLRLSCAASGFIFGYYAMGWYRQAPGKERDLFAAINKNGGSTYYADSVKGRFTISRDNAKNTFYLQRNSLIPEDTAVYYCASRARGYAWTYDYWGQGTQVTVSS | high polyreactivity
39 | QDQLVESGGGLVQAGGSLRLSCAASGFIFIPNAMGWYRQAPRKERELVAAISFSDGTTYYADSVKGRFTISRDYEKNTVYLQMNSLKPEDTAVYYCAAEGYQSQYDYWGQGTQVTVSS | high polyreactivity
40 | QDQLVESGGGLVQAGGSLRLSCAASGFIFYSNAMGWYRQEPGKERELVAAITSGGGSTYYADSVKGRFTISRDTAKNTVYLQMNSLKPEDTAVDYCAVSIGRYPYRYGYWGQGTQVTVSS | high polyreactivity
41 | QDQLVESGGGLVQAGGSLRLSCAASGFIFYYYAMGWYRPAPGKERELVAAISGSGGSTYYADSVKGRFTISRDNAKNTVYLQMNSLKPEDTAVYYCNARRPGYYVYYFAYDYWGQGTQVTVSS | high polyreactivity
42 | QDQLVESGGGLVQAGGSLRLSCAASGFNFYKYAMGWYRQAPGKERELVAAITGRGGSTYYADSVKGRFTISRDNAKNTVYLRMNSLNPEDTAVYYCAASQRSGHPSYDYWGQGTQVTVSS | high polyreactivity
43 | QDQLVESGGGLVQAGGSLRLSCAASGFTFACYTMGWYRQAPGKERELVAGIDWSGGSTYYADSVKGRFTISRDNEKNTVYLEMNSLKPEDTAVYYCNAAVLYYVYPGYDYWGQGTQVTVSS | high polyreactivity
